Assay results as given in the DeepSol protein solubility set.

Assay: soluble on expression in E. coli; label from the status in PepcDB or PDB records
With “MVRGVFVGLFSKKQSVLVGVDISSTAVKLLQLSRSGNRFKVEHYAVEPLPLNAVAEKGIVEVEQVGEAIRRAVSRSGTKAKFAAAAVAGSAVITKLIPMPAGLDEQDLEAQIEIEATNYIPYPIEEVSLDFEVLGPVPNNTEMVQVLLAASRSENVELRQSALELGGLTAKVIDVEALAVENAFSLIAQELSVGSNALVALIDIGATMSTLNVLHSGRSLYAREQLFGGKQLTDEVMHRYGMTYEEAGQAKRQGGLPQSYEVEVLGPFKDSVIQQISRLLQFFYAGSEYNRVDCIVLAGGCAVIAGLPAMVEERLGVVTVVANPLAQMTLGAKVQAHTLAQDAPALMIATGLALRSFD” the “soluble on expression in E. coli” value was “not soluble”.
With “MGSSHHHHHHGKTIFVIVPTNEEQVAFLEALAKQDELNFDWQNPPTEPGQPVVILIPSDMVEWFLEMLKAKGIPFTVYVEEGGSENLYFQGGGGGGQRHAHDSAVGDKALTHKGRLRLSQNASGSAAGRCGSDDGNDSDQGGVDDDNGGAVGRRRRGAGGVLRRRRPQERGGNARRGGSDGDENSYDGDDAGGIPETDANGVKLTRLQRKKLAKEREREERRQAQEAALEAQRQRMDVNELRDAEAALREEELKAAEEAALQQLRRDKKKAEDEEYAKWVSHIGVEERGELGDEERERQTRMQSFLLDRAAQVQARARRSAAGAKSSPSEEECIHVLILQTAARDLKVSVEELVSTIEQLSQVDKVHGVFDDRGKYVFIAPEQFPLLAQFIRLRGRVSVQEFTRECNRVVMQS” the “soluble on expression in E. coli” value was “soluble”.
In the case of “MTSRGITSLSNHLIPLSFPARLRIDQADKQAQAGLMKDHAQHTANIGKFQDSFVTADGQARASVPLSRPETLWFNTGTLCNIECANCYILSSPKNDALVYLSADEVSAYLDQIAARGWPVHEIGFTGGEPFMNPQIIAMSRTALERGFEVLILTNAMRPMMRKTMRLGVAALVRDFGDRLTLRVSVDHHSAACHDAERGAGSFARTLAGMVWLRDCGARMTVAGRTVWGESEAEARAGYAALYAEYGFAIDAFDPGQTVLFPEMDERVEVPEITTACWDILGKSPETVMCASSRMVVKRKGAAHPVVLACTLLPYAPEFELGQTLAEAERPVQLNHPHCAKFCVLGGASCSA”, the “soluble on expression in E. coli” value is reported as “not soluble”.
With “MMQYMLLFSRQGKLRLQKWYTAYPDKQKKKICRELITQILARKPKMCAFLEYKDLKVVYKRYASLYFCCAIEQNDNELITLEVIHRYVELLDKYFGSVCELDIIFNFEKAYFILDEFLLAGEIQETSKKQVLKAIAAQDLIQEEETPQGFFEDHGLG” the “soluble on expression in E. coli” value was “not soluble”.
In the case of “MFRLLVPTYYSYSVPLRFPFCKIYRYSTSNKMVAIKDITARQILDSRGNPTVEVDLLTDGGCFRAAVPSGASTGIYEALELRDKDQTKFMGKGVMKAVENIHKIIKPALIGKDPCDQKGIDKLMVEELDGTKNEWGWCKSKLGANAILAVSMACCRAGAAAKGMPLYKYIATLAGNPTDKMVMPVPFFNVINGGSHAGNKVAMQEFMIAPVGASTIQEAIQIGAEVYQHLKVVIKKKYGLDATNVGDEGGFAPNISGATEALDLLMEAIKVSGHEGKVKIAADVAASEFFLQDDKVYDLDFKTPNNDKSQRKTGEELRNLYKDLCQKYPFVSIEDPFDQDDFHSYAQLTNEVGEKVQIVGDDLLVTNPTRIEKAVQEKACNGLLLKVNQIGTVSESIEACQLAQKNKWGVMVSHRSGETEDSFIADLVVGLRTGQIKTGAPCRSERLCKYNQLMRIEESLGSDCQYAGAGFRHPN”, the “soluble on expression in E. coli” value is reported as “soluble”.
With “MADEEDPCGGGKKNPRKRCQPDVDPEEDSEPDLDGPQPPFRGRSSTVTDAVRQTAMEFRKRARSDEFRPAQQPEQSVVAVKPPTTSAPVTPFPANLPVSEQLEDLSLLPGVRRVRPLPRSRYPVANDPFDKFSAYSGPGSSQQAVPRTISKISEESGSGSGSGSGNDSSGSSGPTRMSGQVPSTSGPPPPRPPPAGHQNPFLGNQPSTSNTSEPSTSTQGVSPSRTSKISKKKAHQAGLHSKGSSEDSTDSGESKPSSKQPPKKSPKSNKNDPNAPGPSRRRDDDDDGVQGGSSEGSSESL” the “soluble on expression in E. coli” value was “soluble”.
With “MGHHHHHHSHMSQPPLLPASAETRKFTRALSKPGTAAELRQSVSEVVRGSVLLAKPKLIEPLDYENVIVQKKTQILNDCLREMLLFPYDDFQTAILRRQGRYICSTVPAKAEEEAQSLFVTECIKTYNSDWHLVNYKYEDYSGEFRQLPNKVVKLDKLP” the “soluble on expression in E. coli” value was “not soluble”.
With “MSLTPMFKTPVVMTIAGSDSGGGAGIAADIKTFAAFGVHGTCAITSVTAQNTTGVLETFDLAPEAVASQIEAVCTDMDVKWAKTGMLASSEIIKEVAKQVKKHNLSLVLDPVMAAEAGGDLLKKEALSVLIKELLPLCKVTTPNASEAGALAGVTVKTHEDAKLAARKIADLGVESVIVTGGHIDATDLLYEPVSGTFTRIPGTFVKGGTHGSGCTYSASMAACLARGDSTETAARKAKTFVEQAILRSVPVGKGVGPVNPLANTLEEKERYLALQDVKEAVSILTYSPDFAKLIPEVGCNIGMAIPCARTYNEIAAVEGRIIRFREKAIPVGYVNFGASQHVARVILAALRENPEMRAAMNVKYSEEILEACREINPGISSFDRAEDPGDASTMEWGTSEAIRKYGGMPEVIYDKGAIGKEPMVRLLGKSASEVAKLAVELARRVKEGHHHHHH” the “soluble on expression in E. coli” value was “soluble”.
In the case of “MGSDKIHHHHHHMQEVATEARIGPNSIIQTVAAARAQYGEEAVADWLRRTGRGHLLEAMPDHMLPESEFGDLIADLRFWLGVSAAADVLAQSGDLTAQYVATHRVPVPIRWLLPRLPVGLALRIFLPAIARHAWTFAGSGRFGYTLQPAWRLTLADSVEARGVRATEPVCAYYRAAFEGLLRRVVCDRLRVHEVACRAMGTGRCEFAVELSR”, the “soluble on expression in E. coli” value is reported as “not soluble”.
In the case of “MSLNKGSERTFNDLVEFIGEEMDFESGFYNDSYLDRRITARMRRTDTEDYQTYQRLLERDNGEREELLDSLSINVTSFFRNPEAWERLRPVLRELTENNRRVRLWSAPSADGREPYSAAMLALDDPEIDARRVEITATDINADILEEARKGTYATSQTTDIADELEPLDDYTKYIEQDGDTFQVRDQVKEMVTFEQHDLIRGDPKRDFDLVFCRNLLIYIDSEFKVPIFETIRGSLREGGYLMIGMTETLPAECRDSFEAVDKRHRIYRREGHHHHHH”, the “soluble on expression in E. coli” value is reported as “not soluble”.
With “MVTKTITEQRAEVRIFAGNDPAHTATGSSGISSPTPALTPLMLDEATGKLVVWDGQKAGSAVGILVLPLEGTETALTYYKSGTFATEAIHWPESVDEHKKANAFAGSALSHAALP” the “soluble on expression in E. coli” value was “soluble”.
For “MGSDKIHHHHHHMIIPHRKPCIESQIKTSGNLDELKMIINDLLYSEKEIQILPSGNSAIHIASEIVSKLNPNSKTLIPDMGGWKGFETYSKLSGLSIEKLKTNLGVVNLEILEEKIKECSAKSLFLTSLAGYLAEQPLKEIAKICSENDCLFIEDVSGKIGGDCGYGDMVVCSTGSPKIINCEYGGFLGFSKKINENLKDKHLKEDIKNLLKTYKMPDIYGKMIEETLISKKSYELCIKFSNIVKENMENAYFKDSQGVSVFLSYENPKEIAKNIDKSVKLNNGKSILTMCPLYERILRKGVVLEIKKMDIHKISENEIYEILNFF”, the “soluble on expression in E. coli” value was “not soluble”.
In the case of “MSLKIKEITIWKEDLALTRPYTIAYETISAVENVFVLLETDNGITGIGAGSPAEDVTGETITATETALSLKLAPILQGKDIRSCFSLLKELNTALADTPAALAAADIALHDLAAKTMGLPLVDLLGRVHDRLPTSITIGIMPVKETLAEAEEYLGRGFSILKIKTGLNVEEDIERIIRLNETFKSKICMRVDANQGYEVEELHHFFKKTVGLVEFIEQPLKAEHLEKMGQLPQAIRRVSAADETLLGPRDAAQMLHAPRPFGIFNIKLMKCGGIAPGLEIANMAGHADIDLMWGCMDESIVSIAGALHAAFSSRATRYLDLDGSLDLARDIVNGGFILENGWMRTTDQPGLGVKRIEGHHHHHH”, the “soluble on expression in E. coli” value is reported as “soluble”.
With “FMAKLTSAVPVLTARDVAGAVEFWTDRLGFSRDFVEDDFAGVVRDDVTLFISAVQDQVVPDNTLAWVWVRGLDELYAEWSEVVSTNFRDASGPAMTEIGEQPWGREFALRDPAGNCVHFVAEEQD” the “soluble on expression in E. coli” value was “soluble”.
For “MGSDKIHHHHHHTYTPGTMGEGVVYYLPKTEIELQVTATKVVYTPGEFCQYADRYLRLTGISSQPEEHWEINSIKVNSIGIPDPDNAYAVKLKDKSAASQVELTPEGIIKAINTTSPIEKAPVTKVADTVKKRIDPRSFMTEEILIAGSTAKMAELVAKEIYNIRESKNSLTRGQADYMPKDGAALKLMLDNLDEQEQAMMQMFAGTTDRIEKSFTIRIKPEADMKEKVAFRFSKKLGMLDADNLSGEPYYISIVNQETLPPMDPKGKEKKKTDGVIYNIPGKAQVTVFTPNKRYFDGELPVTQFGTTECLIDNLFNKKVNTRVIFNPNTGGIVKIDKD”, the “soluble on expression in E. coli” value was “not soluble”.
With “MMSMIEKLKKFTQIPGISGYEERIREEIIREIKDFADYKVDAIGNLIVELGEGEERILFMAHMDEIGLLITGITDEGKLRFRKVGGIDDRLLYGRHVNVVTEKGILDGVIGATPPHLSLERDKSVIPWYDLVIDIGAESKEEALELVKPLDFAVFKKHFSVLNGKYVSTRGLDDRFGVVALIEAIKDLVDHELEGKVIFAFTVQEEVGLKGAKFLANHYYPQYAFAIDSFACCSPLTGDVKLGKGPVIRAVDNSAIYSRDLARKVWSIAEKNGIEIQIGVTGGGTDASAFQDRSKTLALSVPIKYLHSEVETLHLNDLEKLVKLIEALAFEL” the “soluble on expression in E. coli” value was “soluble”.
For “MGSDKIHHHHHHMFLEKLVEMARGKGKKLAVAAANDDHVIEAVYRAWRERVCEPVLFGPEEEITRIIEELVPEWKNPQIIDCPPEEAGRLAVEAVSKGECDFLMKGKIKTGDLMKIYLDERYGLRTGKTMAMVSVMEIPDFPRPLIISDPGMLISPTLEQKVDMIEHCVRVANVMGLETPKVAVVGAIEVVNPKMPITMEAAILSKMNQRGQIKGCIVDGPFALDNVVSEEAAKKKGIQSPVAGKADILILPDIEAANILYKALVFLAKAKSASTILGGKVPVVLTSRADSEETKFYSIALSAVFA”, the “soluble on expression in E. coli” value was “not soluble”.
In the case of “MPREYDNLICYKQLSIDDHGKLKFFLEKHSTKEGTWGKLSLSEGEIDFIFQNGLGQELSRIRLDKNNRQLSIPPASWHKIIPISASFNAQLGFYCKPHRYFNKKYGLTEVHRDLLYVYHTYLSHLGSLTTLDVGCGSGRNLLYLTQLGHIVTGIDINQTALENIQIIAQKENLSLLNILSQDLNQPQALAPDHYDFVCSTVTLQFLNASRIPSLLIELQEATKKNGYHFLVFPVQSELYSLPSSFTFLPKQEELYHFYQDSGWSILEYKESVGHLHKQDEMGRPVQGLFALLLAQKVLLEHHHHHH”, the “soluble on expression in E. coli” value is reported as “not soluble”.
In the case of “MPAPQVMPAKVAPLPTSFRGTSVDGSFSVDASGNLLITRDIRNLFDYFLSAVGEEPLQQSLDRLRAYIAAELQEPARGQALALMQQYIDYKKELVLLERDLPRLADLDALRQREAAVKALRARIFSNEAHVAFFADEETYNQFTLERLAIRQDGKLSAEEKAAAIDRLRASLPEDQQESVLPQLQSELQQQTAALQAAGAGPEAIRQMRQQLVGAEATTRLEQLDRQRSAWKGRLDDYFAEKSRIEGNTGLSEADRRAAVERLAEERFSEQERLRLGALEQMRQAEQR”, the “soluble on expression in E. coli” value is reported as “not soluble”.
In the case of “REEVRVVVGAERTELLLPLLRDKRVALVANATSVVGTEREHLLDNLLRQGVNVVKILGPEHGFRGDADAGATVKDERDVRTGIPIVSLYGKNKKPTPRMLADVDVLLFDMQDVGTRFFTYISTLHYVMEACAEEQKKLIVTDRPNPNDYVDGPILQDDCRSFVGVDPLPILHGLTIGELANMINGEGWLGKKEMKCDLTVVPMSGWKHGQEYALPVKPSPNLPTANAIAWYPSLCLFEATIMSVGRGTDFPFEVLGYPKKVFGSFVFVPRPIRGMDSNPLYKGRHCYGVDLRGEKAPRGLSLQLLIRYYQTARREGIKFVNRKQMFNLLAGTKELAQQIEKGRTEEQIRASWQSDLDKYHKLRKKYLLY”, the “soluble on expression in E. coli” value is reported as “not soluble”.
